Measured values reported in the supplement of paper PMC9170038.

System: MS2 coat protein
Experiment: apparent KD of MS2 coat protein; designed switch direction (-1 OFF switch, 1 ON switch): -1; higher = weaker reporter binding
Procedure, shortened: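 Three titration conditions were used: no input, 200 uM small-molecule ligand, and an oligonucleotide input. In each, SNAP-549-labelled MS2 coat protein was raised from 0.7 or 1.5 nM, doubling, to 3 µM over designed RNA switches transcribed on Illumina chips by stalled E. coli RNA polymerase. Curve fits of normalised cluster fluorescence gave values whose per-design median over clusters is the apparent KD.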

[1] = Eterna round: R95, input ligand: microRNA oligo, concentration not stated
[2] = input ligand: microRNA oligo, concentration not stated
[3] = Eterna round: R95, input ligand: FMN 200 uM
[4] = Eterna round: R95, input ligand: none

Row | Sequence | apparent KD of MS2 coat protein [1] [nM] | apparent KD of MS2 coat protein (input ligand: FMN 200 uM) [nM] | apparent KD of MS2 coat protein [2] [nM] | apparent KD of MS2 coat protein (input ligand: none) [nM] | apparent KD of MS2 coat protein [3] [nM] | apparent KD of MS2 coat protein [4] [nM]
1 | UUAUACGUUGAGGAUAUGCGACUUUUUUUAGUUGUAGAAGGCGAUACAUGAGGAUCACCCAUGUUUAUGGGCAU [LRO-Ex6-11] (puzzle: Exclusion 6) | 137 | – | – | – | – | –
2 | AGAUCAAUCACGAAAGUGAUUGAUCAAAUUAGUUUUUAAACAUGAGGAUCACCCAUGUCCUAGUGGGCUAGUCUUAU [Mat - Sensor v2 - var 2 - Mod - D142] (Eterna round: R96, puzzle: Sensor v2, turn-off variant 2) | – | 254 | 177 | 249 | – | –
3 | UCGACUACAGUAGGAUAUGUAGGAUAUGUGGUUGAGGAUCACCCAACCACUUCAACGACAGAAGGACAGAAGGACUGACAACGU [pwkr exNG2 2xFMN 1xF5.3] (Eterna round: R96, puzzle: Exclusion NG 2) | – | 16.8 | 14.8 | 16.5 | – | –
4 | GCACGGAGUGUAGGAUAUUAGUGCGAUUAGCACUGAGAAGGACAUGAGGAUCACCCAUGUUCCUCAAUAAUUAACCUUCCGUGC [Eli exng1 - 039] (Eterna round: R96, puzzle: Exclusion NG 1) | – | 16.7 | 8.49 | 12.9 | – | –
5 | AAAUAUCAUGUAGGAUAUGGAAGGCGAACCUAUCCAGAAGGACAUGAGGAUCACCCAUGUGCUGAGUUGUCCGUAGACAGCUCU [Ex NG1 #3] (Eterna round: R96, puzzle: Exclusion NG 1) | – | 168 | 27.1 | 31 | – | –
6 | UAAAGACAUGAGGAUCACCCAUGUAAGGAUAUCGCCUGCGGUGGCGCCAGCCAUUAGGCGAGAAGGUGCGGUGA [Eternabot (L1) Solution 14] (Eterna round: R97, puzzle: Exclusion 1) | – | 326 | – | 417 | – | –
7 | AGAGAGUCAGGAUAUCGGUGUGCGAGGAGAGGAGAGAGAGACGAGAAGGGACAUGAGGAUCACCCAUGUAGGUG [JR_Exclusion4)Sub019] (puzzle: Exclusion 4) | 389 | – | – | – | 366 | 318
8 | GGCUGACAUGUAGGAUAUCUGCACGAUUAGUGCAGAGAAGGACAUGAGGAUCACCCAUGUAUAGCGACUUCGGUCGCAACAGCC [ENG1/2-A1] (Eterna round: R96, puzzle: Exclusion NG 1) | – | 155 | 31 | 40 | – | –
9 | AAUUAUUUAUGAGGAUAUUGUGGUGAAACACCACAAGAAGGCAUGAUACACAUGAGGAUCACCCAUGUGAGCCUGAUGCUUAUG [Ex NG1 #54] (Eterna round: R96, puzzle: Exclusion NG 1) | – | – | 13.7 | – | – | –
10 | GUCAGACGAGGAUAUAGAUUUAGAUACAUGAGGAUCACCCAUGUAUAUAUGUAUUUAGAUUUAGAAGGCGUCUGAC [E5/15-A3] (Eterna round: R97, puzzle: Exclusion 5) | – | 187 | – | 240 | – | –
11 | GAUCAUGCAGGAUAUACAGUUUCCAUGAAAACAUGGACCUCACAUGAGGAUCACCCAUGUAGAAGGGCAUGAUC [Omei Ex2 A27] (Eterna round: R97, puzzle: Exclusion 2) | – | 982 | – | 443 | – | –
12 | UACAGUCGAGGAUAUACGAUCGUGCUUCGGCACGUAAGAUCACAUGAGGAUCACCCAUGUAGAAGGCGACUGUA [Mod 9 - Jieux - Exclusion 2] (Eterna round: R97, puzzle: Exclusion 2) | – | 226 | – | 35.1 | – | –
13 | GUCAGGUAUCGAGGAUAUGUGAAAGGAAGUGUAACAGAAGGCGAGGGCUUGACAUGAGGAUCACCCAUGUGAAGUGAUUCGAAG [PowerStrip EXNG 1.22] (Eterna round: R96, puzzle: Exclusion NG 1) | – | 51.8 | 52.5 | 62.9 | – | –
14 | GUAUACAGAGGAUAUACGUGCGGCGUCAAAUGUCCAAGAGUACAUGAGGAUCACCCAUGUAGAAGGUUGAAAGC [Eternabot (L1) Solution 15] (Eterna round: R97, puzzle: Exclusion 2) | – | 21.7 | – | 26.6 | – | –
15 | UAAUACAAGUAAGGAUUCUACAUGAGGAUCACCCAUGUGCUCGUCUUAUAAAGUACUAUCACGAAAGUGAUAGUACA [Mat - Sensor v3 - turn-off var 1 - Eli Mod - D99] (puzzle: Sensor v3, turn-off variant 1) | 148 | – | – | – | 23.5 | 26.4
16 | UUUUGGCAUGUAGGAUAUGGGUCCGAUUAGGAUUUAGAAGGACAUGAGGAUCACCCAUGUGCAUUUAAUUGGUCUUUAUUUUUU [EXclNG1-LROPPY14] (Eterna round: R96, puzzle: Exclusion NG 1) | – | – | 62.3 | – | – | –
